Laboratory results from patent US20240117018A1.

Experiments:
Experiment in all cases: cell-based or functional assay
[1] = target: HIV-1 Env of pseudovirus 0260.v5.c36 (HIV-1)
[2] = target: HIV-1 Env of pseudovirus 3365.v2.c2 (HIV-1)
[3] = target: HIV-1 Env of pseudovirus 3415.v1.c1 (HIV-1)
[4] = target: HIV-1 Env of pseudovirus C2101.c01 (HIV-1)
[5] = target: HIV-1 Env of pseudovirus CNE5 (HIV-1)
[6] = target: HIV-1 Env of pseudovirus CNE8 (HIV-1)
[7] = target: HIV-1 Env of pseudovirus T250-4 (HIV-1)
[8] = target: HIV-1 Env of pseudovirus 1006_11_C3_1601 (HIV-1)
[9] = target: HIV-1 Env of pseudovirus 1056_10_TA11_1826 (HIV-1)
[10] = target: HIV-1 Env of pseudovirus 246F C1G (HIV-1)
[11] = target: HIV-1 Env of pseudovirus 249M B10 (HIV-1)
[12] = target: HIV-1 Env of pseudovirus 6240_08_TA5_4622 (HIV-1)
[13] = target: HIV-1 Env of pseudovirus 6535.3 (HIV-1)
[14] = target: HIV-1 Env of pseudovirus 7030102001E5(Rev-) (HIV-1)
[15] = target: HIV-1 Env of pseudovirus BF1266.431a (HIV-1)
[16] = target: HIV-1 Env of pseudovirus CAP210.2.00.E8 (HIV-1)
[17] = target: HIV-1 Env of pseudovirus CAP45.2.00.G3 (HIV-1)
[18] = target: HIV-1 Env of pseudovirus CNE17 (HIV-1)
[19] = target: HIV-1 Env of pseudovirus CNE19 (HIV-1)
[20] = target: HIV-1 Env of pseudovirus CNE21 (HIV-1)
[21] = target: HIV-1 Env of pseudovirus CNE30 (HIV-1)
[22] = target: HIV-1 Env of pseudovirus Ce0682_E4 (HIV-1)
[23] = target: HIV-1 Env of pseudovirus Ce1086_B2 (HIV-1)
[24] = target: HIV-1 Env of pseudovirus Ce1172_H1 (HIV-1)
[25] = target: HIV-1 Env of pseudovirus Ce704809221_1B3 (HIV-1)
[26] = target: HIV-1 Env of pseudovirus Du156.12 (HIV-1)
[27] = target: HIV-1 Env of pseudovirus HIV-001428-2.42 (HIV-1)
[28] = target: HIV-1 Env of pseudovirus HIV-16845-2.22 (HIV-1)
[29] = target: HIV-1 Env of pseudovirus PVO.4 (HIV-1)
[30] = target: HIV-1 Env of pseudovirus Q23.17 (HIV-1)
[31] = target: HIV-1 Env of pseudovirus Q259.d2.17 (HIV-1)
[32] = target: HIV-1 Env of pseudovirus Q461.e2 (HIV-1)
[33] = target: HIV-1 Env of pseudovirus QH0692.42 (HIV-1)
[34] = target: HIV-1 Env of pseudovirus SC05_8C11_2344 (HIV-1)
[35] = target: HIV-1 Env of pseudovirus SC422661.8 (HIV-1)
[36] = target: HIV-1 Env of pseudovirus THRO4156.18 (HIV-1)
[37] = target: HIV-1 Env of pseudovirus TRJO4551.58 (HIV-1)
[38] = target: HIV-1 Env of pseudovirus ZM249M.PL1 (HIV-1)

N49P9.1 (antibody)
neutralization IC50 [1]: 0.519 µg/mL | neutralization IC80 [1]: 0.151 µg/mL | neutralization MPI [1]: 100 | neutralization IC50 [2]: 0.055 µg/mL | neutralization IC80 [2]: 0.725 µg/mL | neutralization MPI [2]: 100 | neutralization IC50 [3]: 0.21 µg/mL | neutralization IC80 [3]: 1.37 µg/mL | neutralization MPI [3]: 100 | neutralization IC50 [4]: 0.085 µg/mL | neutralization IC80 [4]: 0.227 µg/mL | neutralization MPI [4]: 100 | neutralization IC50 [5]: 0.183 µg/mL | neutralization IC80 [5]: 0.641 µg/mL | neutralization MPI [5]: 100 | neutralization IC50 [6]: 0.228 µg/mL | neutralization IC80 [6]: 0.921 µg/mL | neutralization MPI [6]: 100 | neutralization IC50 [7]: > 50 µg/mL | neutralization IC80 [7]: > 50 µg/mL | neutralization MPI [7]: 7

10-1074 (antibody)
IC50 neutralization (TZM.bl) [4]: > 50 µg/mL | IC80 neutralization (TZM.bl) [4]: > 50 µg/mL | IC50 neutralization (TZM.bl) [5]: > 50 µg/mL | IC80 neutralization (TZM.bl) [5]: > 50 µg/mL | IC50 neutralization (TZM.bl) [6]: > 50 µg/mL | IC80 neutralization (TZM.bl) [6]: > 50 µg/mL

N49P19 (antibody)
neutralization IC50 [1]: 1.25 µg/mL | neutralization IC80 [1]: 8.52 µg/mL | neutralization MPI [1]: 99 | neutralization IC50 [2]: 0.579 µg/mL | neutralization IC80 [2]: 2.09 µg/mL | neutralization MPI [2]: 99 | neutralization IC50 [3]: 0.462 µg/mL | neutralization IC80 [3]: 2.04 µg/mL | neutralization MPI [3]: 100 | neutralization IC50 [4]: 0.978 µg/mL | neutralization IC80 [4]: 4.19 µg/mL | neutralization MPI [4]: 100 | neutralization IC50 [5]: 0.748 µg/mL | neutralization IC80 [5]: 3.29 µg/mL | neutralization MPI [5]: 100 | neutralization IC50 [6]: 0.772 µg/mL | neutralization IC80 [6]: 4.84 µg/mL | neutralization MPI [6]: 97 | neutralization IC50 [7]: > 50 µg/mL | neutralization IC80 [7]: > 50 µg/mL | neutralization MPI [7]: 7

NIH 45-46 (antibody)
IC50 [8]: 0.05 µg/mL | IC80 [8]: 0.31 µg/mL | IC50 [9]: 0.12 µg/mL | IC80 [9]: 0.59 µg/mL | IC50 [10]: > 50 µg/mL | IC80 [10]: > 50 µg/mL | IC50 [11]: 0.04 µg/mL | IC80 [11]: 0.17 µg/mL | IC50 [2]: 0.11 µg/mL | IC80 [2]: 0.11 µg/mL | IC50 [3]: 0.07 µg/mL | IC80 [3]: 0.07 µg/mL | IC50 [12]: 0.44 µg/mL | IC80 [12]: 1.55 µg/mL | IC50 [13]: 0.14 µg/mL | IC80 [13]: 0.28 µg/mL | IC50 [14]: 0.14 µg/mL | IC80 [14]: 0.63 µg/mL | IC50 [15]: 0.01 µg/mL | IC80 [15]: 0.03 µg/mL | IC50 [16]: > 50 µg/mL | IC80 [16]: > 50 µg/mL | IC50 [17]: > 50 µg/mL | IC80 [17]: > 50 µg/mL | IC50 [18]: 0.15 µg/mL | IC80 [18]: 0.55 µg/mL | IC50 [19]: 0.07 µg/mL | IC80 [19]: 0.37 µg/mL | IC50 [20]: 7.53 µg/mL | IC80 [20]: > 50 µg/mL | IC50 [21]: 0.34 µg/mL | IC80 [21]: 1.48 µg/mL | IC50 [22]: 0.07 µg/mL | IC80 [22]: 0.25 µg/mL | IC50 [23]: 0.04 µg/mL | IC80 [23]: 0.28 µg/mL | IC50 [24]: > 50 µg/mL | IC80 [24]: > 50 µg/mL | IC50 [25]: 0.15 µg/mL | IC80 [25]: 0.88 µg/mL | IC50 [26]: 0.01 µg/mL | IC80 [26]: 0.05 µg/mL | IC50 [27]: < 0.001 µg/mL | IC80 [27]: 0.01 µg/mL | IC50 [28]: 2.05 µg/mL | IC80 [28]: 12.1 µg/mL | IC50 [29]: 0.17 µg/mL | IC80 [29]: 0.47 µg/mL | IC50 [30]: 0.14 µg/mL | IC80 [30]: 0.6 µg/mL | IC50 [31]: 0.01 µg/mL | IC80 [31]: 0.06 µg/mL | IC50 [32]: 0.06 µg/mL | IC80 [32]: 0.32 µg/mL | IC50 [33]: 0.55 µg/mL | IC80 [33]: 1.56 µg/mL | IC50 [34]: 0.14 µg/mL | IC80 [34]: 0.38 µg/mL | IC50 [35]: 0.01 µg/mL | IC80 [35]: 0.07 µg/mL | IC50 [36]: 1.59 µg/mL | IC80 [36]: 6.02 µg/mL | IC50 [37]: 0.01 µg/mL | IC80 [37]: 0.05 µg/mL | IC50 [38]: 0.02 µg/mL | IC80 [38]: 0.06 µg/mL

PG16 (antibody)
IC50 neutralization (TZM.bl) [4]: 0.012 µg/mL | IC80 neutralization (TZM.bl) [4]: 0.238 µg/mL | IC50 neutralization (TZM.bl) [5]: 0.008 µg/mL | IC80 neutralization (TZM.bl) [5]: 0.033 µg/mL
